From patent publication US9556236 (UNIVERSITY OF SOUTH FLORIDA, dated 2017)
Positions of bridges follow the written chain, without caps; N, C: chain ends. No end group written: not given here.

Biological target: RSV fusion (F) protein (respiratory syncytial virus (strains …, UniProt P03420 26-574))
Test: cell-based or functional assay

Chain of RSV fusion (F) protein (respiratory syncytial virus (P03420 26-574): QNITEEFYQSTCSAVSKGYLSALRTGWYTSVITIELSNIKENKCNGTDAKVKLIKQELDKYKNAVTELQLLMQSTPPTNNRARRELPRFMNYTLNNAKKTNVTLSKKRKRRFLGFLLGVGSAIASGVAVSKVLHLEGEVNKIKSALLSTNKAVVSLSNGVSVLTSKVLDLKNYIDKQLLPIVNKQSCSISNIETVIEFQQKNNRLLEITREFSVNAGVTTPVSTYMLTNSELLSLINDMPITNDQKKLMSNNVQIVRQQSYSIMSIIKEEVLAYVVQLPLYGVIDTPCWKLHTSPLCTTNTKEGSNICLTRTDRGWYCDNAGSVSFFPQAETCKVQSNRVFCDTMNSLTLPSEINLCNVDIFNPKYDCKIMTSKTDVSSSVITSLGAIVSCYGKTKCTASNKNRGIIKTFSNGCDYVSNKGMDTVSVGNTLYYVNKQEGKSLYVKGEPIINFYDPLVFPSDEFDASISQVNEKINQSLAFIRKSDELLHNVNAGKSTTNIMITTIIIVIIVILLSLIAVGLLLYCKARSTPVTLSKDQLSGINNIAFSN

Row | Binder | A2 RSV viral titers, plaque assay (time point not clearly stated) | A2 RSV viral titers, plaque assay on HEp2 cells, 24 h to 96 h pi | A2 RSV viral titers, plaque assay, 96 h pi | RA2 RSV viral titers, plaque assay (time point not clearly stated) | RA2 RSV viral titers, plaque assay on HEp2 cells, 24 h to 96 h pi | RA2 RSV viral titers, plaque assay, 96 h pi
1 | DACISQVNECINQSLAFICKSDELLCNT (not fully specified (bridges); also: predicted disulfides C3-C10 and C19-C26) [HR2-D] | 100 fold reduction | ≥ 100 fold reduction | 50000 fold reduction | 100 fold decrease | ≥ 100 fold reduction | 1000 fold less
2 | FDACISQVNECINQSLAFIRKSDELLHNVNAGKST (disulfide 4-11) [HR2-S] | 0.1 fold decrease | ~0.2 fold reduction | 0.1 fold decrease | 100 fold decrease | – | 20 fold smaller
